Results taken from article PMC2386467.

target: Rap2.6 (Arabidopsis thaliana) (UniProt Q7G1L2); test: EMSA; settings: EMSA: 2.5 ug protein, 20 ng DNA, 0.5x TBE, 20 min room temperature, 6-7% native PAGE, anti-His blot; affinity assay: 2 ug protein, 100 pmol F5, 0.5x TBE, 10 min
Sequence (Q7G1L2 whole entry): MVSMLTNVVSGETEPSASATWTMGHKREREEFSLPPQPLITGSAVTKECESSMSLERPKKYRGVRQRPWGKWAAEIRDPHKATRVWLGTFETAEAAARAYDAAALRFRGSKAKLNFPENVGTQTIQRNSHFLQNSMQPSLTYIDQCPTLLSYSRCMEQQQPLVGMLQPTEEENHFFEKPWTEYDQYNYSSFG

binding, no binding:
AAACCATGGCATGCATAAGAGTCTTGAGCATAATAATGAAACCTGGATTTCCCGGA (double strand) [F1], AAACCATGGCATGCATAAGAGTCTTGAGCATAATAATGAAACCTGGATTTCCCGGAATAAACAATACATGGAATGTGGGATTCTCAGCTTGAATTTCCATCATCTCCGTCATC (double strand) [F2], CTCCGGTCACGCGATTCAACTTATATCTTCTCTCAGAACTGTCAACACTTGAAAGGAGAAGATCGAGAGAATTAATGAGACAACAGAGAAACCACTAAAAATCAAAACTTTGCAAAATAAGTGAAGAAGCCTTTTAAAGTAAACCAAGTGAAGAGAG (double strand) [F5], TCTCCGTCATCGAACTTTGATCACAAATACAAAAAACAAAACAAAAAGTGTAACTATAGTCAAAGAAATTAGAAAATTTCGTAAAAGATTAATGTAACAATACCCAGAAACTCTGC (double strand) [F3]
